Consider 1 molecule from PMC11814294 (2025).

The assay deals with GST-His-ZTL (Arabidopsis thaliana, UniProt Q94BT6 1-609, RED-NHS 2nd Generation fluorescent label (in the MST assay only)). In words: MST.
GST-His-ZTL, sequence (Q94BT6 whole entry): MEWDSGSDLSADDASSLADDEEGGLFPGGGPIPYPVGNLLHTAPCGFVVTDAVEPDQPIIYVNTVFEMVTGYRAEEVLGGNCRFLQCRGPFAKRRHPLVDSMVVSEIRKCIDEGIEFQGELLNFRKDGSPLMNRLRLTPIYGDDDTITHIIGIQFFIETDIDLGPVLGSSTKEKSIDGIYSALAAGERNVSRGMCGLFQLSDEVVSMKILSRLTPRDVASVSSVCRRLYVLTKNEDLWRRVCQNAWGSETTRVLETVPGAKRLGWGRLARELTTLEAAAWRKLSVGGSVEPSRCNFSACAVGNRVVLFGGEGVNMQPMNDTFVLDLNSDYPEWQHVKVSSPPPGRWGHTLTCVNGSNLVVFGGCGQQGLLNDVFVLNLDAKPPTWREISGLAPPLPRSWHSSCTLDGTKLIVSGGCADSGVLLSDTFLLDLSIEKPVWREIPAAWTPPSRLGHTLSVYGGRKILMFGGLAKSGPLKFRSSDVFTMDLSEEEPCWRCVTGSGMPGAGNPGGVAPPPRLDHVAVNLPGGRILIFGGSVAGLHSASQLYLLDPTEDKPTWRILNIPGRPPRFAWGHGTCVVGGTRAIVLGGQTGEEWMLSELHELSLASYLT

B1: His-CHE (natural protein)
chain: not shown
Molecule B1 had a Kd of 190 nM.
